Laboratory results reported in patent US20100184658A1 (published 2010).

How the values were obtained:
Assay in all cases: cell-based or functional assay
[1] = biological target: IR (h) (human (printed as (h)), UniProt P06213 1005-1310, limits assumed)
[2] = biological target: MAPK1(h) (human (printed as (h)), UniProt P28482 1-360, limits assumed)
[3] = biological target: MAPK2(h) (human (printed as (h)), UniProt P28482 1-360)
[4] = biological target: RPS6KB1 (p70S6K) Ribosomal protein S6 kinase, 70 kDa, polypeptide 1 (human (printed as (h)), UniProt P23443 1-421, limits assumed)
RPS6KB1 (p70S6K) Ribosomal protein S6 kinase, 70 kDa, polypeptide 1 (human (printed as (h)), UniProt P23443 1-421, limits assumed), sequence (P23443 1-421 limits assumed): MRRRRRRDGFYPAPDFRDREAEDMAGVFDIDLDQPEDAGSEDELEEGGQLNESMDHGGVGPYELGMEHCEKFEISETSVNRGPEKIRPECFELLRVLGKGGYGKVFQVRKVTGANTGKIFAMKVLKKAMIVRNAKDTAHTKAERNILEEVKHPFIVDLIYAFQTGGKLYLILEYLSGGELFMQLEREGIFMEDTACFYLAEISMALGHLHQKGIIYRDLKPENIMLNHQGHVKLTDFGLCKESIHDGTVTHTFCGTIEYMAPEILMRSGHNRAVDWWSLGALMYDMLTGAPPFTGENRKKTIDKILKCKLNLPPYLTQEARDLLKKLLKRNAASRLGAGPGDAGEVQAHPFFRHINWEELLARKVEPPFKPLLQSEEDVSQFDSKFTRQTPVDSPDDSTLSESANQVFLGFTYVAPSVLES

[5] = biological target: PKA(h) (human (printed as (h)), UniProt P17612 1-351)
[6] = biological target: PRKCB2 (PKC beta II) (human (printed as (h)), UniProt P05771-2 1-673)
PRKCB2 (PKC beta II) (human (printed as (h)), UniProt P05771-2 1-673), sequence (P05771 other isoform, or with tags, fused parts or gaps limits assumed): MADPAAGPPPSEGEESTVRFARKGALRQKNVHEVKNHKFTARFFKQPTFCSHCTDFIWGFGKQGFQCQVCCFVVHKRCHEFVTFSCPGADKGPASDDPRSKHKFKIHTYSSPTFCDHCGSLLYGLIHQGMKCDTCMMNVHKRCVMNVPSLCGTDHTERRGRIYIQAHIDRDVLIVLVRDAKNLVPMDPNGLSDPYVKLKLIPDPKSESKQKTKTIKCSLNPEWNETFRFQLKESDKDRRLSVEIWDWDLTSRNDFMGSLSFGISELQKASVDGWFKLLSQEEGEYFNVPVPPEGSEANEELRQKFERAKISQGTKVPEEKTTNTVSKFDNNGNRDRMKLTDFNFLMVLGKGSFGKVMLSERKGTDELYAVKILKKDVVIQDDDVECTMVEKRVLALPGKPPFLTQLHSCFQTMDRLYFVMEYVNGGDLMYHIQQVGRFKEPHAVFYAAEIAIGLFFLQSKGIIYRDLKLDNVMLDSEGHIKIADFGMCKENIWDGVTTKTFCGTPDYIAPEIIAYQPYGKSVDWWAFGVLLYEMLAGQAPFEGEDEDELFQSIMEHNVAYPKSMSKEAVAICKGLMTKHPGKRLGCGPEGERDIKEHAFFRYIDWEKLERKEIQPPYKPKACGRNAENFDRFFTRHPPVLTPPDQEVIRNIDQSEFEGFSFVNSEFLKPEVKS

[7] = biological target: T1, PRKCZ (PKC zeta) (human (printed as (h)), UniProt Q05513 1-592, limits assumed)
T1 sequence (looked up): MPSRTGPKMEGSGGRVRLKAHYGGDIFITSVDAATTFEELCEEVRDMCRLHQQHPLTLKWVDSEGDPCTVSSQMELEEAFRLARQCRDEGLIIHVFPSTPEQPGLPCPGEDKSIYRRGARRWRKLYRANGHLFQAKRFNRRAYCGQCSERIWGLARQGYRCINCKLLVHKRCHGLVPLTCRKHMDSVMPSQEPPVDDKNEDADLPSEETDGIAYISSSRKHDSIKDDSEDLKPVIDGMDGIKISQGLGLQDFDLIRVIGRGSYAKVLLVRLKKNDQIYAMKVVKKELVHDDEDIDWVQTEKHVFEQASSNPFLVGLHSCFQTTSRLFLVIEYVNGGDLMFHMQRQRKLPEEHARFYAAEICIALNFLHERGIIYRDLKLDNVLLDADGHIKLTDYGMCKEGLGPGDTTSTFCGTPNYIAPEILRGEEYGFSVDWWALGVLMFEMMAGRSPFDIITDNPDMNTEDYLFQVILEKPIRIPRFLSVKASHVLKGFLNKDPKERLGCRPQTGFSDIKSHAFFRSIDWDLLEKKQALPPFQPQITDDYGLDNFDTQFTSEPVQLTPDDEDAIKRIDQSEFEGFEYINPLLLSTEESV

[8] = biological target: T2, SGK (SGK1) Serum/glucocorticoid regulated kinase (human (printed as (h)), UniProt O00141 60-431, limits assumed)
T2 sequence (looked up): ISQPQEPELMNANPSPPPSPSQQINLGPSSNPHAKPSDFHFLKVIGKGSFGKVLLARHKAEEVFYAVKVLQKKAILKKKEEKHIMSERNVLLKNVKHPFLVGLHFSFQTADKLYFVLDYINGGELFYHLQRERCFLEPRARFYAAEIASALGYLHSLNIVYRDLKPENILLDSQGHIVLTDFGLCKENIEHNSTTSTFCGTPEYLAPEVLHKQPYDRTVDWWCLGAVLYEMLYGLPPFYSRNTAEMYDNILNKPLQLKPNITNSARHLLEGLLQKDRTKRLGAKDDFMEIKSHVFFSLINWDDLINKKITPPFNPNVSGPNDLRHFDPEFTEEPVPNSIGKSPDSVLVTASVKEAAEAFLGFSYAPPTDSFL

[9] = biological target: GSK3β(h) (human (printed as (h)), UniProt P49841 1-420, limits assumed)
GSK3β(h) (human (printed as (h)), UniProt P49841 1-420, limits assumed), sequence (P49841 whole entry): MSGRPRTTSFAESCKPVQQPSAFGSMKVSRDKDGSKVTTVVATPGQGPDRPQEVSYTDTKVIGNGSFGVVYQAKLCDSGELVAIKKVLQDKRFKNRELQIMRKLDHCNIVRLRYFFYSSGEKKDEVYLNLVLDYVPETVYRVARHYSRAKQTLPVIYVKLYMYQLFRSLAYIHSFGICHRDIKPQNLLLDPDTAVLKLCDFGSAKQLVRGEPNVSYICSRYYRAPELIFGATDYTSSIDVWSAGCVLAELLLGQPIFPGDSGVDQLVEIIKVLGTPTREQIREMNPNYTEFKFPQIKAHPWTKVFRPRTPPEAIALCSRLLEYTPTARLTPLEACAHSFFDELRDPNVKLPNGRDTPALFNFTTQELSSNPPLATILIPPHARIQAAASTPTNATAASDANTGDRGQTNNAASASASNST

[10] = biological target: T3, ADRBK2 (GRK3) (UniProt P35626 1-688, limits assumed)
T3 sequence (looked up): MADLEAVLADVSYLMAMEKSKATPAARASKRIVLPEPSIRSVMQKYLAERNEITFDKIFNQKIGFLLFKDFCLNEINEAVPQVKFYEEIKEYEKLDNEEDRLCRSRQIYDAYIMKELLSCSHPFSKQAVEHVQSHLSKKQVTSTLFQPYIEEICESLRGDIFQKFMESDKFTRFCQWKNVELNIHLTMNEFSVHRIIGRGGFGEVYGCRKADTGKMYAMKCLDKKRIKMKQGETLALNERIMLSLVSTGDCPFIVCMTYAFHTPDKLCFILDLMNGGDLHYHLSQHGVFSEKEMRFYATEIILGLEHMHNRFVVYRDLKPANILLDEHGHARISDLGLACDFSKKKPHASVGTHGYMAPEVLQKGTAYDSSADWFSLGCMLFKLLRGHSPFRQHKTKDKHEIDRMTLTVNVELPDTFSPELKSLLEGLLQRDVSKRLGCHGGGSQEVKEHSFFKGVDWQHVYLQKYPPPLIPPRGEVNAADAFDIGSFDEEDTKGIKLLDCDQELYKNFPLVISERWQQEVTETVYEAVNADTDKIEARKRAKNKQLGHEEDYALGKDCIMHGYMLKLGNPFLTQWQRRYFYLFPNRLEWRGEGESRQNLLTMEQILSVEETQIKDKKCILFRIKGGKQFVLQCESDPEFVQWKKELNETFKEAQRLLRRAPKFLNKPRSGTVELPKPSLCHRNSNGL

IR (h) (human (printed as (h)), UniProt P06213 1005-1310, limits assumed), sequence (P06213 1005-1310 limits assumed): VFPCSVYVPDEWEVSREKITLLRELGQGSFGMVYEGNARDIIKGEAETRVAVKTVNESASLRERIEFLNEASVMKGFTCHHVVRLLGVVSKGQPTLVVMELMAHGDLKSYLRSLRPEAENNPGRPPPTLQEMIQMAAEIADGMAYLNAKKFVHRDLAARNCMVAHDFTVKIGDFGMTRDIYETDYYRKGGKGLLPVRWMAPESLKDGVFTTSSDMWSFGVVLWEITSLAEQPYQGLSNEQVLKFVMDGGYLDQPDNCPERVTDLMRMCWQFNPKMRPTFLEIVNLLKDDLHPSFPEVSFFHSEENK
MAPK2(h) (human (printed as (h)), UniProt P28482 1-360), sequence (P28482 whole entry): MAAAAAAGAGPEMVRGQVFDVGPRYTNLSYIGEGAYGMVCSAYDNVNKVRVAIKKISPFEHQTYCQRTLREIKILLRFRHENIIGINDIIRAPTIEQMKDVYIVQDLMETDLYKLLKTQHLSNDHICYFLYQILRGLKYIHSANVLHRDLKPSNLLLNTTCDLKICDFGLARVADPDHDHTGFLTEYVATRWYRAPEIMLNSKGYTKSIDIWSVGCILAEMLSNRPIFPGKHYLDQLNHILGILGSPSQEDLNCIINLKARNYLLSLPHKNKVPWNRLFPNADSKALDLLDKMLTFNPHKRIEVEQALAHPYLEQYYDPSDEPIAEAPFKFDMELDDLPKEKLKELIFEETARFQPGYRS
MAPK1(h) (human (printed as (h)), UniProt P28482 1-360, limits assumed), sequence (P28482 whole entry): as above

B1: D3 peptide (peptide)
peptide: SGRPPMIVWFNRPFLIAVSHTHGQTILFMAKVINPVGA
Q: What does the source list for B1?
A: D3 at 0.1 µM % activity [1]: 96%; D3 at 1 µm % activity [1]: 103%; D3 at 0.1 µM % activity [2]: 86%; D3 at 1 µm % activity [2]: 92%; D3 at 0.1 µM % activity [3]: 96%; D3 at 1 µm % activity [3]: 96%; D3 at 0.1 µM % activity [4]: 73%; D3 at 1 µm % activity [4]: 22%; IC50 [4]: 373 nM; D3 at 0.1 µM % activity [5]: 115%; D3 at 1 µm % activity [5]: 105%; D3 at 0.1 µM % activity [6]: 101%; D3 at 1 µm % activity [6]: 103%; D3 at 0.1 µM % activity [7]: 95%; D3 at 1 µm % activity [7]: 42%; IC50 [7]: 1040 nM; D3 at 0.1 µM % activity [8]: 74%; D3 at 1 µm % activity [8]: 5%; IC50 [8]: 325 nM; D3 at 0.1 µM % activity [9]: 101%; D3 at 1 µm % activity [9]: 100%; % Inhibition mean [10]: 66.7%
